Measured values published in paper PMC5507929, “Structural and Biochemical Characterization of Apicomplexan Inorganic Pyrophosphatases” (Scientific Reports, 2017).
Where “and” joins values, the source holds several entries; their conditions need not be identical. Equal entries are not always repeated.

Assays:
[1] = target: Plasmodium falciparum soluble inorganic pyrophosphatase (PfPPase), full length (Plasmodium falciparum); test: SEC; gel permeation chromatography on S-200 16/60; 30 mM HEPES-Na pH 7.2, 100 mM NaCl, 1 mM DTT; absorbance at 280 nm, compared with Mwt markers
[2] = target: Plasmodium falciparum soluble inorganic pyrophosphatase (PfPPase), full length (Plasmodium falciparum); test: native gel or EMSA; blue native PAGE of purified recombinant PfPPase from E. coli
PfPPase = target: T1, PfPPase (Plasmodium falciparum, UniProt O77392); conditions: active site (P1 phosphate position), chains B and C; Se-Met protein crystallised with 1 mM PPi and 3 mM MgCl2
T1 construct: gene MAL3P6.3
T1 sequence (O77392 1-380): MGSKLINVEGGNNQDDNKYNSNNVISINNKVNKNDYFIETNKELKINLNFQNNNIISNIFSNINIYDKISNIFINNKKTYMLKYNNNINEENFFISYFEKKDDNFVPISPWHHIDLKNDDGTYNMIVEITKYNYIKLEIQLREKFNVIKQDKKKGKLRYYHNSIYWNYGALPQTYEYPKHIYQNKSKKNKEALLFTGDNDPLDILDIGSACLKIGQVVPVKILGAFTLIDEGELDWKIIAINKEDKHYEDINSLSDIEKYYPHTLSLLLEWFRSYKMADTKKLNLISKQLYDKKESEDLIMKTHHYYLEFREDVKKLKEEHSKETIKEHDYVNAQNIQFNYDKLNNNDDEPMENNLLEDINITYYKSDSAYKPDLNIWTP

[3] = target: Toxoplasma gondii soluble inorganic pyrophosphatase (TgPPase) (Toxoplasma gondii); test: SEC; TgPPase in solution (Supplementary Figure 1b); the sentence names no method; gel filtration analysis is named in p-0022
[4] = substrate: O=P(O)(O)OP(=O)(O)OP(=O)(O)O; test: malachite green phosphate release assay; format: biochemical, Plasmodium falciparum; conditions: 1 mM Zn2+, pH 7.0, 37 °C, 100 mM NaCl, pH 7.0
Description: (§1) malachite green phosphate release assay on PfPPase

[5] = substrate: O=P(O)(O)OP(=O)(O)O; test: malachite green phosphate release assay; format: biochemical, Plasmodium falciparum; conditions: 3 mM Mg2+, pH 7.2, 37 °C, 100 mM NaCl, 1.4 nM enzyme, pH 7.2
Description: as §1

[6] = substrate: Nc1ncnc2c1ncn2[C@@H]1O[C@H](COP(=O)(O)OP(=O)(O)OP(=O)(O)O)[C@@H](O)[C@H]1O; test: malachite green phosphate release assay; format: biochemical, Plasmodium falciparum; conditions: 1 mM Zn2+, pH 7.2, 37 °C, 100 mM NaCl, pH 7.2
Description: as §1

Q: What does the source list for “Plasmodium falciparum soluble inorganic pyrophosphatase (PfPPase), full length (enzyme)”?
A: stoichiometry N [1]: 2 and 4; stoichiometry N [2]: 2

Q: How did the “X-ray crystal structure, 3.2 Å” value (PfPPase) turn out when O=P(O)(O)O [Pi] was run?
A: The value was “PfPPase active site showed electron density for only one Pi molecule”.

Q: For “Toxoplasma gondii soluble inorganic pyrophosphatase (TgPPase) (enzyme)”, which stoichiometry N [3] is on record?
A: Its stoichiometry N is 2.

B1: PfPPase (Plasmodium falciparum 3D7) (protein)
chain: MGSKLINVEGGNNQDDNKYNSNNVISINNKVNKNDYFIETNKELKINLNFQNNNIISNIFSNINIYDKISNIFINNKKTYMLKYNNNINEENFFISYFEKKDDNFVPISPWHHIDLKNDDGTYNMIVEITKYNYIKLEIQLREKFNVIKQDKKKGKLRYYHNSIYWNYGALPQTYEYPKHIYQNKSKKNKEALLFTGDNDPLDILDIGSACLKIGQVVPVKILGAFTLIDEGELDWKIIAINKEDKHYEDINSLSDIEKYYPHTLSLLLEWFRSYKMADTKKLNLISKQLYDKKESEDLIMKTHHYYLEFREDVKKLKEEHSKETIKEHDYVNAQNIQFNYDKLNNNDDEPMENNLLEDINITYYKSDSAYKPDLNIWTP
notes: full length 1-380, pETM41, MBP-6xHis tag cleaved with TEV, E. coli BL21-CodonPlus; ~45 kDa, dimer; crystal protein Se-Met labelled
Q: How did the Km [4] turn out when B1 was run?
A: The Km was 1.6 ± 0.3 µM.

Q: What about the kcat [4] of the same molecule?
A: The kcat was 26.3 ± 3 s⁻¹.

Q: What about the kcat/Km [4] of the same molecule?
A: The kcat/Km was 1.6e+07 M⁻¹ s⁻¹.

Q: And the Km [5]?
A: Its Km is 10 ± 1.8 µM.

Q: And the kcat [5]?
A: Its kcat is 266 ± 11.4 s⁻¹.

Q: And the kcat/Km [5]?
A: Its kcat/Km is 2.66e+07 M⁻¹ s⁻¹.

Q: And the Km [6]?
A: Its Km is 64 ± 4.2 µM.

Q: What about the kcat [6] of the same molecule?
A: Its kcat is 6.3 ± 1.2 s⁻¹.

Q: What about the kcat/Km [6] of the same molecule?
A: Its kcat/Km is 90000 M⁻¹ s⁻¹.
